The text below walks through data of patent US20040143098.

The test system of the data set is DBF1 (Zea mays). Kind of data set: cell_activity. The note with it: maize callus, GUS reporter; nearly 3-fold with ABA.
Sequence of DBF1 (Zea mays) (chain, as listed by the source): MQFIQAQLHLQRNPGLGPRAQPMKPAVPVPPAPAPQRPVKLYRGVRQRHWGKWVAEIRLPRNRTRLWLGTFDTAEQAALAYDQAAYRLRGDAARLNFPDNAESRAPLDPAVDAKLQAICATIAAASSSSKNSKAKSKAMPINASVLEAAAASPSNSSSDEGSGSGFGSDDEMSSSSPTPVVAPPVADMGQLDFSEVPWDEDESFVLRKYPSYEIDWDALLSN

As for rab17 promoter -350/+30, the activity was 2 fold.
